Laboratory results from patent publication US20220016130.

Biological target: His-BRD4-N (amino acids 1-500), O60885

B1: GST-SPOP (protein)
chain: MSRVPSPPPPAEMSSGPVAESWCYTQIKVVKFSYMWTINNFSFCREEMGEVIKSSTFSSGANDKLKWCLRVNPKGLDEESKDYLSLYLLLVSCPKSEVRAKFKFSILNAKGEETKAMESQRAYRFVQGKDWGFKKFIRRDFLLDEANGLLPDDKLTLFCEVSVVQDSVNISGQNTMNMVKVPECRLADELGGLWENSRFTDCCLCVAGQEFQAHKAILAARSPVFSAMFEHEMEESKKNRVEINDVEPEVFKEMMCFIYTGKAPNLDKMADDLLAAADKYALERLKVMCEDALCSNLSVENAAEILILADLHSADQLKTQAVDFINYHASDVLETSGWKSMVVSHPHLVAEAYRSLASAQCPFLGPPRKRLKQS
Q: How did the “in vitro ubiquitination assay (western blot)” value turn out when B1 was run?
A: The SPOP-CULLIN3-RBX1 complex was shown to catalyzed BRD4 ubiquitination in vitro
